Laboratory results: PMC3279538 (Diabetes, 2010)

Molecular target: endogenous B7-H1 wild type (NOD mouse, from wild-type spleen) (mouse (endogenous in NOD spleen), UniProt Q9EP73 19-290)
Test: SPR

Chain of endogenous B7-H1 wild type (NOD mouse, from wild-type spleen) (Q9EP73 19-290): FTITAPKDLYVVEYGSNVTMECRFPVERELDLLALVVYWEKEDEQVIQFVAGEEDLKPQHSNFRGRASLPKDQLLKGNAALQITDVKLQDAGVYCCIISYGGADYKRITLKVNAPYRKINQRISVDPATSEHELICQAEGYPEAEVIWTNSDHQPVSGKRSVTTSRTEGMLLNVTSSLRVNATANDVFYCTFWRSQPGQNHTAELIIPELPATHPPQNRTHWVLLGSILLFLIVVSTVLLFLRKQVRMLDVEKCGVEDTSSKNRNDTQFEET

Kd: 11 nM
koff: 0.0017 s⁻¹
B1: PD-1 receptor (receptor, UniProt Q02242 25-169, looked up)
chain: LEVPNGPWRSLTFYPAWLTVSEGANATFTCSLSNWSEDLMLNWNRLSPSNQTEKQAAFCNGLSQPVQDARFQIIQLPNRHDFHMNILDTRRNDSGIYLCGAISLHPKAKIEESPGAELVVTERILETSTRYPSPSPKPEGRFQGM
